This note sets out measurements from US20250026823A1.

Assay [1] deals with CLEC12A expressed on cells (CLEC12A-transfected CHO cells; HL60 cells) (UniProt Q5QGZ9). Put plainly: flow cytometry on HL60 cells.
The target is the same in assay [2]. Put plainly: flow cytometry on CLEC12A-transfected CHO cells.
Assay [3] deals with extracellular domain of CLEC12A (amino acids 75 to 275) coupled to a His-tag (Sino Biological, cat.no. 11896-H07H) (UniProt Q5QGZ9). Put plainly: ELISA, extracellular domain of CLEC12A coated at 2 µg/ml.
Sequence of extracellular domain of CLEC12A (amino acids 75 to 275) coupled to a His-tag (Sino Biological, cat.no. 11896-H07H) (Q5QGZ9 65-265 limits assumed): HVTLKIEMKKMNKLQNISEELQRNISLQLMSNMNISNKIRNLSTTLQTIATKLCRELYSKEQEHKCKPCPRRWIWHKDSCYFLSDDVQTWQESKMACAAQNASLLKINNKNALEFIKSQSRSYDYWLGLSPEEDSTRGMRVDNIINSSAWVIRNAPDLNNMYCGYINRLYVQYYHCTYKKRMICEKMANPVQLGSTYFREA

Sequence of CLEC12A expressed on cells (CLEC12A-transfected CHO cells; HL60 cells) (Q5QGZ9 whole entry): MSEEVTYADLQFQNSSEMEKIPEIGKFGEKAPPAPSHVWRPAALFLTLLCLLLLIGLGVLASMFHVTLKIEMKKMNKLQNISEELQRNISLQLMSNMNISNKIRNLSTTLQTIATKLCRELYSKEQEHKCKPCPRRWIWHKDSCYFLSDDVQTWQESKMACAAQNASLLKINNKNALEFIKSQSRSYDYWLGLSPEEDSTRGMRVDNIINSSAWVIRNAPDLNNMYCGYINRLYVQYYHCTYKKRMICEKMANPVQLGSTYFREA

With “irrelevant IgG1 isotype control mAb (antibody)”, the mean fluorescent intensity in assay [1] stood at 116; in assay [2] it was 289. In assay [3], this substance registered an optical density of 0.127.
